The target of one test is HLA-A*29:02. As to the kind of experiment: IEDB peptide-MHC binding, purified MHC/competitive/fluorescence; filed as Kd, often an IC50 or EC50 that approximates it; ≥ and ≤ were set here for values at or beyond the usual limits of such assays. To be noted: source organism: Clostridium botulinum A str. ATCC 3502.
The target of the next test is HLA-C*15:02. As to the kind of experiment: IEDB peptide-MHC binding, purified MHC/direct/fluorescence; filed as Kd, often an IC50 or EC50 that approximates it; ≥ and ≤ were set here for values at or beyond the usual limits of such assays. Particulars: source organism: Clostridium botulinum A str. ATCC 3502.
The target in another test is HLA-C*14:02. The test is described as above. Particulars: source organism: Clostridium botulinum A str. ATCC 3502.
The target of test [1] is HLA-A*02:01. As to the kind of experiment: IEDB peptide-MHC binding, purified MHC/competitive/fluorescence; ≥ and ≤ were set here for values at or beyond the usual limits of such assays.
Test [2] concerns the target HLA-B*15:01. Described as above.
The target in test [3] is HLA-A*11:01. The test is described as above. To be noted: source organism: Sudan ebolavirus.
The target of test [4] is HLA-A*03:01. The description is as above.
The target of another test is HLA-A*24:02. Described as above.
Test [5] addresses HLA-A*11:01. As to the kind of experiment: IEDB peptide-MHC binding, purified MHC/competitive/fluorescence; filed as Kd, often an IC50 or EC50 that approximates it; ≥ and ≤ were set here for values at or beyond the usual limits of such assays.
For a further test, the target named is HLA-A*02:03. The description is as above. To be noted: source organism: Variola virus.
A further test concerns the target HLA-B*46:01. As to the kind of experiment: IEDB peptide-MHC binding, purified MHC/direct/fluorescence; filed as Kd, often an IC50 or EC50 that approximates it; ≥ and ≤ were set here for values at or beyond the usual limits of such assays. To be noted: source organism: Camelpox virus M-96.
A further test addresses HLA-A*69:01. The description is as above. To be noted: source organism: Camelpox virus M-96.
The target of test [6] is HLA-A*02:01. Described as above. To be noted: source organism: Camelpox virus M-96.
Another test has as its target HLA-B*40:01. The test is described as above. To be noted: source organism: Camelpox virus M-96.
The target of a further test is HLA-A*31:01. Described as above. To be noted: source organism: Camelpox virus M-96.
Another test addresses HLA-A*26:01. Described as above. Particulars: source organism: Camelpox virus M-96.
The next test deals with HLA-B*57:01. The description is as above. Particulars: source organism: Camelpox virus M-96.
Another test addresses HLA-A*01:01. The test is described as above. Particulars: source organism: Camelpox virus M-96.
Another test addresses HLA-B*48:01. The test is described as above. Particulars: source organism: Camelpox virus M-96.
Test [7] concerns the target HLA-B*15:01. The test is described as above. Particulars: source organism: Camelpox virus M-96.
Another test has as its target HLA-B*27:05. The description is as above. To be noted: source organism: Camelpox virus M-96.
Another test has as its target HLA-B*58:01. The test is described as above. Particulars: source organism: Camelpox virus M-96.
The target in a further test is HLA-B*15:17. Described as above. To be noted: source organism: Camelpox virus M-96.
The target of test [8] is HLA-A*03:01. The test is described as above. Particulars: source organism: Camelpox virus M-96.
A further test concerns the target HLA-B*08:01. As to the kind of experiment: IEDB peptide-MHC binding, purified MHC/competitive/fluorescence; filed as Kd, often an IC50 or EC50 that approximates it; ≥ and ≤ were set here for values at or beyond the usual limits of such assays.
The target in test [9] is HLA-B*15:01. Described as above. To be noted: source organism: Vaccinia virus WR.
A further test has as its target HLA-A*68:01. As to the kind of experiment: IEDB peptide-MHC binding, purified MHC/competitive/radioactivity; filed as Kd, often an IC50 or EC50 that approximates it; ≥ and ≤ were set here for values at or beyond the usual limits of such assays. To be noted: source organism: Vaccinia virus WR.
In the next test the target is HLA-A*33:01. The description is as above. To be noted: source organism: Vaccinia virus WR.
[10] abbreviates: source organism: Sudan ebolavirus.
Where [11] appears, read: source organism: Zaire ebolavirus.
The mark [12] stands for this setting: source organism: Vaccinia virus WR.

Bounds are passed on as bounds.

With YMIGYTAYY, the Kd with HLA-A*29:02 is not above 0.0001 µM; with HLA-C*15:02 it was 4.02 µM; in the test with HLA-C*14:02, not above 0.001 µM.
For QLNDTIHLH, the IC50 with HLA-A*02:01 [1] (setting [10]) was 39.9 µM; with HLA-B*15:01 [2] (setting [10]), 53.1 µM; with HLA-A*11:01 [3], 6.06 µM; in the test with HLA-A*03:01 [4] (setting [10]), 50.4 µM.
Consider LQVSDVDKL, for which the values for the IC50 with HLA-A*02:01 [1] (setting [11]) and with HLA-B*15:01 [2] (setting [11]) were 5.69 µM and not below 75.8 µM, respectively.
KLYLVDYGL: the IC50 with HLA-B*15:01 [2] (setting [12]) was 35.7 µM; with HLA-A*03:01 [4] (setting [12]), not below 130 µM; in the test with HLA-A*24:02 (setting [12]), 16.5 µM.
As for KLFLESGAV, the IC50 with HLA-A*02:01 [1] (setting [11]) is 1.76 µM; in the test with HLA-B*15:01 [2] (setting [11]), not below 81.3 µM; in the test with HLA-A*03:01 [4] (setting [11]) it was not below 280 µM; with HLA-A*24:02 (setting [11]), not below 184 µM.
VIILFQRTF: the values for the IC50 with HLA-A*02:01 [1] (setting [11]), with HLA-B*15:01 [2] (setting [11]) and in the test with HLA-A*24:02 (setting [11]) were not below 818 µM, not below 85.9 µM and 0.0558 µM, respectively.
For DILASIIDY, the Kd is not below 20 µM with HLA-A*11:01 [5] (source organism: Variola virus); 1.85 µM with HLA-A*02:03; not below 20 µM in the test with HLA-B*46:01; not below 20 µM with HLA-A*69:01; not below 20 µM with HLA-A*02:01 [6]; not below 20 µM with HLA-B*40:01. For the same sequence, the Kd with HLA-A*31:01 was not below 20 µM; with HLA-A*26:01 it was 0.361 µM; with HLA-B*57:01, not below 20 µM; with HLA-A*01:01, not below 20 µM; with HLA-B*48:01, not below 20 µM; with HLA-B*15:01 [7], not below 20 µM. Also, the Kd with HLA-B*27:05 is not below 20 µM; with HLA-B*58:01 it was not below 20 µM; in the test with HLA-B*15:17, 0.299 µM; in the test with HLA-A*03:01 [8], not below 20 µM.
Take LFKIDNNTF: the figures for the IC50 with HLA-B*15:01 [2] (setting [10]) and with HLA-A*24:02 (setting [10]) were 14.4 µM and 0.0253 µM, respectively.
On to LYKSINVEY, for which the figures for the IC50 in the test with HLA-B*15:01 [2] (setting [12]) and in the test with HLA-A*24:02 (setting [12]) were 7.65 µM and 0.11 µM, respectively.
In the case of KQDRSDGYF, in the test with HLA-B*15:01 [2] (source organism: Vaccinia virus Copenhagen), the IC50 is 60.3 µM.
Consider EIKDRILSY, for which the Kd in the test with HLA-B*08:01 (setting [12]) is 2.02 µM; in the test with HLA-B*15:01 [9], 0.165 µM; with HLA-A*11:01 [5] (setting [12]) it was not below 20 µM; with HLA-A*69:01 it was not below 20 µM; in the test with HLA-A*02:01 [6] it was not below 20 µM; with HLA-B*40:01 it was not below 20 µM. Moreover, the Kd is not below 20 µM in the test with HLA-A*31:01; 0.003 µM in the test with HLA-A*26:01; not below 20 µM with HLA-B*57:01; not below 20 µM with HLA-A*01:01; not below 20 µM with HLA-B*48:01; not below 20 µM in the test with HLA-B*27:05. In addition, the Kd was not below 20 µM with HLA-B*58:01; 0.63 µM with HLA-B*15:17; not below 20 µM with HLA-A*03:01 [8]; 0.116 µM in the test with HLA-A*68:01; not below 20.5 µM with HLA-A*33:01.
QARRMVQAM yielded a Kd in the test with HLA-B*08:01 (source organism: Influenza A virus (A/Wellington/8/2004(H3N2))) of 0.0863 µM.

The Kd is the free concentration of one partner at which half of the binding sites on the other are occupied at equilibrium, for simple one-to-one binding. The term IC50 denotes the concentration that inhibits the measured activity by half.

For the origin of these results see the Immune Epitope Database (IEDB).
